The record followed here is patent publication US20240318262A1 (TOHOKU UNIVERSITY, published 2024).

The target in the assay is T1, human LILRB4 in TIL regions of lung squamous cell carcinoma tissue specimens (human, UniProt Q8NHJ6 24-258).
T1 construct: Native LILRB4 on cells in patient tissue sections; also called immunosuppressive receptor LILRB4
Kind of assay: immunohistochemical staining of lung squamous cell carcinoma tissue specimens. On the procedure: Immunohistochemical staining was performed using the anti-human LILRB4 monoclonal antibody #10 obtained in Experimental Example 6, which inhibits binding between fibronectin and human LILRB4, on each of the lung squamous cell carcinoma tissue specimens whose LILRB4 expression was previously determined to be strongly positive (High), medium positive (Medium) or weakly positive (Low), with goat anti-human LILRB4 polyclonal antibodies (available from R & D Systems). The results are illustrated in FIG. 3.

B1: anti-human LILRB4 monoclonal antibody #10 (antibody, V domains shown)
VH: EVMLVESGGGLVQPGGSRKLSCAASGFTFSSFGMHWVRQAPEKGLEWVAYISSGSSTIYYVDTVKGRFTISRDNPKNTLFLQMTSLRSEDTAMYYCARSTGTGAMDYWGQGTSVTVSS
VL: DIQMTQTTSSLSASLGDRVTISCRASQDISNYLNWYQQKPDGTVKLLIYYTLRLYSGVPSRFSGSGSGTDYSLTISNLEQEDIATYFCQQGNTLPWTFGGGTKLEIK
notes: In the reporter assay it was used as hybridoma culture supernatant; also called anti-LILRB4 monoclonal antibody
With B1, the binding result is recorded as “binds”.
